This experiment deals with rabbit skeletal muscle actin, filamentous (F-actin) (rabbit (Oryctolagus cuniculus), UniProt P68135 1-377). Description: co-sedimentation; 3 µM ABD with F-actin from 0 to 140 µM in F-buffer (10 mM Tris pH 7.5, 150 mM NaCl, 0.5 mM ATP, 2 mM MgCl2, 1 mM DTT), 30 min at 23–24 °C, pelleted at 100,000 x g; unbound ABD in the supernatant quantified on Coomassie gels; fit to Y=X/(Kd+X). Particulars: both partners purified.

B1: WT β-III-spectrin ABD (amino acids 1–284), pE-SUMO construct (domain or fragment)
chain: MSSTLSPTDFDSLEIQGQYSDINNRWDLPDSDWDNDSSSARLFERSRIKALADEREAVQKKTFTKWVNSHLARVTCRVGDLYSDLRDGRNLLRLLEVLSGEILPKPTKGRMRIHCLENVDKALQFLKEQKVHLENMGSHDIVDGNHRLTLGLVWTIILRFQIQDISVETEDNKEKKSAKDALLLWCQMKTAGYPNVNVHNFTTSWRDGLAFNAIVHKHRPDLLDFESLKKCNAHYNLQNAFNLAEKELGLTKLLDPEDVNVDQPDEKSIITYVATYYHYFSKMK
notes: also called WT ABD; pE-SUMO-ABD WT; source: E. coli BL21(DE3)pLysS, purified (Ni-NTA, Ulp1 cleavage, second Ni-NTA, Sephadex S100 gel filtration)
B1 registered a Kd of 75 µM.

The record behind these values is publication PMC5676748, “Structural basis for high-affinity actin binding revealed by a β-III-spectrin SCA5 missense mutation” (Nature Communications, 2017).
